Measurements reported in patent US6824994B2, “Peptide ligands that mimic sensor kinases and inhibit response regulators” (priority 2000, dated 2004).
Entries after “also recorded” stand apart in the source; their conditions may differ.

How the values were obtained:
VanR = biological target: T1, VanR (Enterococcus faecium, UniProt Q06239); assay: Phage ELISA of phage-displayed peptides binding to immobilised VanR; settings: cloned N-terminal regulatory domain of VanR
T1 construct: GST (N, cleaved yes); made in house; host or cells: E. coli BL21 lambda DE3 (pGEX-2TK)
T1 sequence (Q06239 whole entry, the tested form may be a part): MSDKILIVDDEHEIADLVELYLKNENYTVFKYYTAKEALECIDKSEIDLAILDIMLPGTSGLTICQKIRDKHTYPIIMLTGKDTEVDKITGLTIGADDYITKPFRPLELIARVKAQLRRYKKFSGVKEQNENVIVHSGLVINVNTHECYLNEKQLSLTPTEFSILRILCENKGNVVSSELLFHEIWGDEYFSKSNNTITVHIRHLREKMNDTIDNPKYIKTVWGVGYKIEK
Experimental: Phage Display. Phage display was performed using the methods described by A. Sparks et al., Phage Display Of Peptides And Proteins; A Laboratory Manual (1996). Microtiter plate wells were coated with purified VanR and used to select binding phage from a library displaying combinatorial peptides, i.e., 10 random NNK codons followed by a Cys codon, TGC, in the eleventh position (N is A, G, C, or T, and K is G or T). After three rounds of selection, the binding of individual phage clones to the VanR target protein was assessed by phage-ELISA using an anti-M13 phage monoclonal antibody-horseradish peroxidase conjugate (Pharmacia). Ninety-six phage plaques were picked from the third round of selection and tested for their ability to bind to VanR and to BSA, by phage ELISA, to determine levels of specific and background binding, respectively.
For inserting determinants for desired peptide sequences into phage M13 DNA, oligonucleotides encoding the defined peptide sequences were cloned into the XhoI and XbaI sites within gene III of bacteriophage M13. The resulting recombinant phage were then tested for binding to various protein targets, immobilized within microtiter plate wells, by phage ELISA. […]
Sequence Analysis of Combinatorial Peptides. […] The deduced peptide sequences were further analyzed by alignment with the amino acid sequence of VanS using the program MultAlin. […]

VanR˜P-PVanH complex = biological target: T2, VanR˜P-PVanH complex (Enterococcus faecium, UniProt Q06239); assay: Gel shift analysis of VanR˜P binding to PVanH DNA; format: biochemical
T2 construct: GST (N, cleaved yes); made in house; host or cells: E. coli BL21 lambda DE3 (pGEX-2TK); phosphorylated with lithium acetyl phosphate
T2 sequence (Q06239 whole entry, one chain of several): as the sequence (Q06239 whole entry, the tested form may be a part) above
Experimental: (§1) Amplification and 5′-End-Labeling of PVanH DNA. A 254 bp DNA fragment containing the PVanH promoter region (residues −191 to 63) was obtained by PCR as described by T. Holman et al., 33 Biochem. 4625-4631 (1994) using a boiled cell preparation of En. faecium A634 as the template source. Amplified PVanH promoter DNA was 5′-end-labeled with [γ-32 P]ATP (specific activity of […]) and phage T4 polynucleotide kinase. The reaction mixture was incubated for 30 minutes at 37° C., and unincorporated ATP was removed by centrifugal gel filtration (Sephadex G-50 spin column, Amersham Pharmacia Biotech).
Phosphorylation of VanR with Acetyl Phosphate. VanR was phosphorylated as described previously in T. Holman et al., 33 Biochem. 4625-4631 (1994). The reaction was performed in a total volume of 100 μL which contained 50 mM HEPES (pH 7.2), 5 mM MgCl2, 50 mM lithium acetyl phosphate, and 9 μM VanR. […]
Gel Shift Analysis of VanR ˜P Binding to PVanH DNA. VanR-PVanH complexes were quantified by gel shift analysis as described by T. Holman et al., 33 Biochem. 4625-4631 (1994). […]
(§2) To start the reaction, ^32P-labeled PVanH promoter probe DNA (0.65 ng in 1 μL) was added, and the reaction mixture was incubated on ice for 15 minutes. The resultant VanR˜P-PVanH complexes were analyzed by nondenaturing PAGE. […]

VanR-PVanH complex = biological target: T3, VanR-PVanH complex (Enterococcus faecium, UniProt Q06239); assay: Inhibition of the interaction between 32P-labeled PVanH promoter DNA and VanR; format: biochemical; settings: chemically synthesized peptide in disulfide form; 32P-labeled PVanH DNA segment
T3 construct: GST (N, cleaved yes); made in house; host or cells: E. coli BL21 lambda DE3 (pGEX-2TK)
T3 sequence (Q06239 whole entry, one chain of several): as the sequence (Q06239 whole entry, the tested form may be a part) above
Experimental: as §1
Gel Shift Analysis of VanR ˜P Binding to PVanH DNA. VanR-PVanH complexes were quantified by gel shift analysis as described by T. Holman et al., 33 Biochem. 4625-4631 (1994). Complexes were formed in a total volume of 15 μL which contained 4 pmol of VanR-P, which was preincubated with the appropriate effector peptides (as aqueous solutions) for 10 minutes at room temperature in 20 mM HEPES (pH 7.2), 5 mM MgCl2, 0.1 mM Na2EDTA, 0.5 mM CaCl2, 10% glycerol, and 0.5 μg of salmon sperm DNA.
as §2, with “PAGE. See generally J. Sambrook et al., Molecular Cloning: A Laboratory Manual, 2nd Ed.” for “PAGE.”

[1] = biological target: T4, phosphoryl transfer from P˜VanS to PhoB (Escherichia coli, UniProt P0AFJ5); assay: Phosphotransferase assay, phosphoryl transfer from P˜VanS to PhoB; format: biochemical; settings: peptide at 1 mM
T4 construct: GST (N, cleaved yes); made in house; host or cells: E. coli BL21 lambda DE3 (pGEX-2TK)
T4 sequence (P0AFJ5 whole entry): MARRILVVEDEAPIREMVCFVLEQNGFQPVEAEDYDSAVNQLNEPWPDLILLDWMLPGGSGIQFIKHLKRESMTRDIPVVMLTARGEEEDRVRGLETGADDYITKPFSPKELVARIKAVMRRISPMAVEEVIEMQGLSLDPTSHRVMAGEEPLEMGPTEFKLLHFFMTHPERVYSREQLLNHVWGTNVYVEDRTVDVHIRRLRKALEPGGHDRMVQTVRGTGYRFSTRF
Experimental: Phosphotransferase Assay. VanSc-GST (4 pmol) was labeled for 60 minutes at room temperature in a 5 μL volume containing, 50 mM Tris-HCl (pH 7.4), 5 mM MgCl2, and 100 mM KCl. The reaction was initiated by addition of 1 μL of 200 μM [γ-^32P]ATP which contained 1 μCi. After 60 minutes, the 5 μL reaction mixture was added to a 15 μL reaction mixture containing 80 pmol of PhoB and 2.5 mM PMSF all in the same buffer, with the appropriate peptide at a final concentration of 1 mM. Reactions were stopped by the addition of 10 μL of SDS gel loading buffer, and the resultant mixture was fractionated by SDS-PAGE. Phosphoproteins were assessed autoradiographically with a phosphorimager, as previously described.

SEQ ID NO. 1: dodecamer peptide selected from a combinatorial phage-display library for binding to VanR; contains two Cys residues (SLCHDSVIGWEC)
binding to the regulatory domain of VanR (VanR): localized to the N-terminal, regulatory domain of VanR; also recorded: bound reproducibly to the cloned regulatory domain of VanR preferentially
inhibition of the binding of VanR˜P to DNA segment of cognate promoter PVanH (VanR˜P-PVanH complex): found to inhibit the binding of VanR˜P
inhibition of the interaction between VanR and PVanH (VanR-PVanH complex): inhibited the interaction between VanR and PVanH

SEQ ID NO. 2: modified peptide derived from SEQ ID NO. 1, more closely resembling VanS; the two Cys replaced with Ala and Ser (SLAHDSIIGYLS)
inhibition of the binding of VanR˜P to DNA segment of cognate promoter PVanH (VanR˜P-PVanH complex): found to inhibit the binding of VanR˜P
inhibition of phosphoryl transfer from VanS˜P to PhoB [1]: inhibited phosphoryl transfer
